Experimental data as given in article PMC12102759 (2025).

B1: PRDM14 peptide 196-211 (PR domain zinc finger protein 14), 16-mer library wild type / NSP3 SUD-M (ORF1ab Nsp3c SUD-M, residues 1356-1493) (parent complex)
chain 1: QFTEEDLHFVLYGVTP
chain 2: LPSIISNEKQEILGTVSWNLREMLAHAEETRKLMPVCVETKAIVSTIQRKYKGIKIQEGVVDYGARFYFYTSKTTVASLINTLNDLNETLVTMPLGYVTHGLNLEEAARYMRSLKVPATVSVSSPDAVTAYNGYLTSS
B2: PEX5 peptide 240-255 (Peroxisomal targeting signal 1 receptor), 16-mer library wild type / PEX14 Pex14 (PEX14 PEX14, residues 16-84) (parent complex)
chain 1: AEQWAAEFIQQQGTSD
chain 2: TPGSENVLPREPLIATAVKFLQNSRVRQSPLATRRAFLKKKGLTDEEIDMAFQQSGTAADEPSSLGPAT

Variants of: B1
Test: bait immobilised on MaxiSorp plates (10 µg), library pre-cleared on GST, 2 h binding at 4 °C, five washes; one round per day, days 1-4; value from days 2 and 3

Point of comparison: chain 1 QFTEEALHFVLYGVTP [chain 1 D6A], screen value 6.63e-05 average fractional NGS count over selection days 2 and 3 (reads of this peptide / all reads for the bait, averaged over …. Against it:
- chain 1 QFTEEDRHFVLYGVTP [chain 1 L7R] — higher, 7.05e-05 average fractional NGS count over selection days 2 and 3 (reads of this peptide / all reads for the bait, averaged over …
- chain 1 QFTEEVLHFVLYGVTP [chain 1 D6V] — lower, 5.37e-05 average fractional NGS count over selection days 2 and 3 (reads of this peptide / all reads for the bait, averaged over …
- chain 1 QFTEEGLHFVLYGVTP [chain 1 D6G] — lower, 5.78e-05 average fractional NGS count over selection days 2 and 3 (reads of this peptide / all reads for the bait, averaged over …
- chain 1 QFTEEELHFVLYGVTP [chain 1 D6E] — higher, 0.0721 average fractional NGS count over selection days 2 and 3 (reads of this peptide / all reads for the bait, averaged over …
- chain 1 QFSEEDLHFVLYGVTP [chain 1 T3S] — higher, 0.000238 average fractional NGS count over selection days 2 and 3 (reads of this peptide / all reads for the bait, averaged over …
- chain 1 QFTEEDLHFVLYGVTR [chain 1 P16R] — lower, 6.57e-05 average fractional NGS count over selection days 2 and 3 (reads of this peptide / all reads for the bait, averaged over …
- chain 1 QFTEEDLHFVLYGVTS [chain 1 P16S] — higher, 0.145 average fractional NGS count over selection days 2 and 3 (reads of this peptide / all reads for the bait, averaged over …
- chain 1 QFTEEDLHFVLYGVTK [chain 1 P16K] — higher, 9.04e-05 average fractional NGS count over selection days 2 and 3 (reads of this peptide / all reads for the bait, averaged over …
- chain 1 QFTEEDLHFVLYGVTY [chain 1 P16Y] — higher, 0.000111 average fractional NGS count over selection days 2 and 3 (reads of this peptide / all reads for the bait, averaged over …
- chain 1 QFTEEDLHFVLYGVTL [chain 1 P16L] — higher, 0.00707 average fractional NGS count over selection days 2 and 3 (reads of this peptide / all reads for the bait, averaged over …
- chain 1 QFTEEDLHFVLYGVTE [chain 1 P16E] — higher, 9.32e-05 average fractional NGS count over selection days 2 and 3 (reads of this peptide / all reads for the bait, averaged over …
- chain 1 QFTEEDLHFVLYGVTD [chain 1 P16D] — higher, 0.004 average fractional NGS count over selection days 2 and 3 (reads of this peptide / all reads for the bait, averaged over …
- chain 1 QFTEEDLHFVLYGVTF [chain 1 P16F] — higher, 0.000936 average fractional NGS count over selection days 2 and 3 (reads of this peptide / all reads for the bait, averaged over …
- chain 1 QFTEEDLHFVLYGVTH [chain 1 P16H] — higher, 0.000235 average fractional NGS count over selection days 2 and 3 (reads of this peptide / all reads for the bait, averaged over …
- chain 1 QFTEEDLHFVLYGVTV [chain 1 P16V] — higher, 0.000126 average fractional NGS count over selection days 2 and 3 (reads of this peptide / all reads for the bait, averaged over …
- chain 1 QFTQEDLHFVLYGVTP [chain 1 E4Q] — lower, 4.52e-05 average fractional NGS count over selection days 2 and 3 (reads of this peptide / all reads for the bait, averaged over …
- chain 1 QFTEEDLHFVLYGLTP [chain 1 V14L] — lower, 4.25e-05 average fractional NGS count over selection days 2 and 3 (reads of this peptide / all reads for the bait, averaged over …
- chain 1 QFTEEDLHFVLYGITP [chain 1 V14I] — higher, 7.71e-05 average fractional NGS count over selection days 2 and 3 (reads of this peptide / all reads for the bait, averaged over …
- chain 1 QFTEEDLYFVLYGVTP [chain 1 H8Y] — lower, 5.98e-05 average fractional NGS count over selection days 2 and 3 (reads of this peptide / all reads for the bait, averaged over …
- chain 1 QFTEEDLIFVLYGVTP [chain 1 H8I] — higher, 8.91e-05 average fractional NGS count over selection days 2 and 3 (reads of this peptide / all reads for the bait, averaged over …
- chain 1 QFTEEDLLFVLYGVTP [chain 1 H8L] — higher, 0.000127 average fractional NGS count over selection days 2 and 3 (reads of this peptide / all reads for the bait, averaged over …
- chain 1 QFTEEDLKFVLYGVTP [chain 1 H8K] — higher, 0.000229 average fractional NGS count over selection days 2 and 3 (reads of this peptide / all reads for the bait, averaged over …
- chain 1 QFTEEDLVFVLYGVTP [chain 1 H8V] — higher, 0.000167 average fractional NGS count over selection days 2 and 3 (reads of this peptide / all reads for the bait, averaged over …
- chain 1 QFTEEDLNFVLYGVTP [chain 1 H8N] — higher, 0.00229 average fractional NGS count over selection days 2 and 3 (reads of this peptide / all reads for the bait, averaged over …
- chain 1 QFTEEDLAFVLYGVTP [chain 1 H8A] — higher, 0.00113 average fractional NGS count over selection days 2 and 3 (reads of this peptide / all reads for the bait, averaged over …
- chain 1 QFTEEDLRFVLYGVTP [chain 1 H8R] — higher, 0.0209 average fractional NGS count over selection days 2 and 3 (reads of this peptide / all reads for the bait, averaged over …
- chain 1 QFTEEDLTFVLYGVTP [chain 1 H8T] — higher, 0.000106 average fractional NGS count over selection days 2 and 3 (reads of this peptide / all reads for the bait, averaged over …
- chain 1 QFTEEDLMFVLYGVTP [chain 1 H8M] — higher, 0.194 average fractional NGS count over selection days 2 and 3 (reads of this peptide / all reads for the bait, averaged over …
- chain 1 QFTEEDLEFVLYGVTP [chain 1 H8E] — lower, 4.27e-05 average fractional NGS count over selection days 2 and 3 (reads of this peptide / all reads for the bait, averaged over …
- chain 1 QFTEEDLHFVLMGVTP [chain 1 Y12M] — lower, 4.44e-05 average fractional NGS count over selection days 2 and 3 (reads of this peptide / all reads for the bait, averaged over …
- chain 1 QFTEEDLHFVLEGVTP [chain 1 Y12E] — higher, 0.000104 average fractional NGS count over selection days 2 and 3 (reads of this peptide / all reads for the bait, averaged over …

Variants of: B2
Test: proteomic peptide phage display deep mutational scan (ProP-PD DMS): M13 P8 16-mer library selected against immobilised GST-tagged bait for four days (rounds), NGS of the eluted pools per day and pseudo-replica; bait immobilised on MaxiSorp plates (10 µg), library pre-cleared on GST, 2 h binding at 4 °C, five washes; one round per day, days 1-4; value from days 2 and 3

Point of comparison: chain 1 AEQWAAEFAQQQGTSD [chain 1 I9A], screen value 0.00188 average fractional NGS count over selection days 2 and 3 (reads of this peptide / all reads for the bait, averaged over …. Against it:
- chain 1 AEQWAAEFIQQEGTSD [chain 1 Q12E] — lower, 0.00182 average fractional NGS count over selection days 2 and 3 (reads of this peptide / all reads for the bait, averaged over …
- chain 1 AEQWAAEFIQQFGTSD [chain 1 Q12F] — lower, 0.00145 average fractional NGS count over selection days 2 and 3 (reads of this peptide / all reads for the bait, averaged over …
- chain 1 AEQWAAEFIQQGGTSD [chain 1 Q12G] — higher, 0.00219 average fractional NGS count over selection days 2 and 3 (reads of this peptide / all reads for the bait, averaged over …
- chain 1 AEQWAAEFIQQWGTSD [chain 1 Q12W] — lower, 0.000968 average fractional NGS count over selection days 2 and 3 (reads of this peptide / all reads for the bait, averaged over …
- chain 1 AEQWAAEFIQQQETSD [chain 1 G13E] — lower, 0.000748 average fractional NGS count over selection days 2 and 3 (reads of this peptide / all reads for the bait, averaged over …
- chain 1 AEQWAAEFIQQQHTSD [chain 1 G13H] — higher, 0.00793 average fractional NGS count over selection days 2 and 3 (reads of this peptide / all reads for the bait, averaged over …
- chain 1 AEQWAAEFVQQQGTSD [chain 1 I9V] — higher, 0.00275 average fractional NGS count over selection days 2 and 3 (reads of this peptide / all reads for the bait, averaged over …
- chain 1 AEQWAAEFNQQQGTSD [chain 1 I9N] — lower, 0.00185 average fractional NGS count over selection days 2 and 3 (reads of this peptide / all reads for the bait, averaged over …
- chain 1 AEQWAAEFLQQQGTSD [chain 1 I9L] — lower, 0.000942 average fractional NGS count over selection days 2 and 3 (reads of this peptide / all reads for the bait, averaged over …
- chain 1 AEQWAAEFEQQQGTSD [chain 1 I9E] — lower, 0.00149 average fractional NGS count over selection days 2 and 3 (reads of this peptide / all reads for the bait, averaged over …
- chain 1 AEQWAAEFKQQQGTSD [chain 1 I9K] — lower, 0.000873 average fractional NGS count over selection days 2 and 3 (reads of this peptide / all reads for the bait, averaged over …
- chain 1 AEQWAAEFQQQQGTSD [chain 1 I9Q] — higher, 0.00295 average fractional NGS count over selection days 2 and 3 (reads of this peptide / all reads for the bait, averaged over …
- chain 1 AETWAAEFIQQQGTSD [chain 1 Q3T] — lower, 0.00148 average fractional NGS count over selection days 2 and 3 (reads of this peptide / all reads for the bait, averaged over …
- chain 1 AEPWAAEFIQQQGTSD [chain 1 Q3P] — lower, 0.00138 average fractional NGS count over selection days 2 and 3 (reads of this peptide / all reads for the bait, averaged over …
- chain 1 AEVWAAEFIQQQGTSD [chain 1 Q3V] — lower, 0.000961 average fractional NGS count over selection days 2 and 3 (reads of this peptide / all reads for the bait, averaged over …
- chain 1 AENWAAEFIQQQGTSD [chain 1 Q3N] — higher, 0.00292 average fractional NGS count over selection days 2 and 3 (reads of this peptide / all reads for the bait, averaged over …
- chain 1 AEHWAAEFIQQQGTSD [chain 1 Q3H] — higher, 0.00576 average fractional NGS count over selection days 2 and 3 (reads of this peptide / all reads for the bait, averaged over …
- chain 1 AERWAAEFIQQQGTSD [chain 1 Q3R] — lower, 0.000498 average fractional NGS count over selection days 2 and 3 (reads of this peptide / all reads for the bait, averaged over …
- chain 1 AEQWAAEFIQQQGTQD [chain 1 S15Q] — higher, 0.0029 average fractional NGS count over selection days 2 and 3 (reads of this peptide / all reads for the bait, averaged over …
- chain 1 AEQWASEFIQQQGTSD [chain 1 A6S] — lower, 0.00105 average fractional NGS count over selection days 2 and 3 (reads of this peptide / all reads for the bait, averaged over …
- chain 1 AEQWAEEFIQQQGTSD [chain 1 A6E] — lower, 0.000449 average fractional NGS count over selection days 2 and 3 (reads of this peptide / all reads for the bait, averaged over …
- chain 1 AEQWAREFIQQQGTSD [chain 1 A6R] — higher, 0.00273 average fractional NGS count over selection days 2 and 3 (reads of this peptide / all reads for the bait, averaged over …
- chain 1 AEQWATEFIQQQGTSD [chain 1 A6T] — higher, 0.0091 average fractional NGS count over selection days 2 and 3 (reads of this peptide / all reads for the bait, averaged over …
- chain 1 AEQWAWEFIQQQGTSD [chain 1 A6W] — higher, 0.00422 average fractional NGS count over selection days 2 and 3 (reads of this peptide / all reads for the bait, averaged over …
- chain 1 AEQWAFEFIQQQGTSD [chain 1 A6F] — lower, 0.00131 average fractional NGS count over selection days 2 and 3 (reads of this peptide / all reads for the bait, averaged over …
